From publication PMC10344970

Legend:
Assay in all cases: purified protein
Oc1ccc2cccc(O)c2c1 = conditions: co-substrate 1 mM DMAPP, 50 mM Tris-HCl, 10 mM CaCl2, 5% DMSO, 37 °C, 15 min
Oc1ccc2c(O)cccc2c1 = conditions: co-substrate 1 mM DMAPP, 50 mM Tris-HCl, 10 mM CaCl2, 5% DMSO, 37 °C, 15 min
[1] = system: CC(C)=CCC/C(C)=C/COP(=O)(O)OP(=O)(O)O; conditions: co-substrate 1-hydroxynaphthalene (1), 50 mM Tris-HCl, 10 mM CaCl2, 5% DMSO, 37 °C, 15 min, substrate inhibition at 1.0 mM or higher

## ShPT (Stereum hirsutum FP-91666 SS1)
Oc1ccc2cccc(O)c2c1
  Km: 920 ± 10 µM
  kcat: 0.46 ± 0.04 s⁻¹
  kcat/Km: 511 M⁻¹ s⁻¹
Oc1ccc2c(O)cccc2c1
  Km: 660 ± 100 µM
  kcat: 0.13 ± 0.01 s⁻¹
  kcat/Km: 197 M⁻¹ s⁻¹
[1]
  Km: 1010 ± 50 µM
  kcat: 0.36 ± 0.01 s⁻¹
  kcat/Km: 357 M⁻¹ s⁻¹
